Laboratory results: patent US20160032001A1 (APEXIGEN, published 2016)
Changes are numbered by the printed parent chain. Where two headings read alike, the source gives them in different places. Values belong to the binder of their own block, whether it stands above or below them.

How the values were obtained:
human RANKL protein [1] = target: T1, human RANKL protein (human, UniProt O14788 140-317, limits assumed); assay: competition ELISA: RANKL (0.5 ug/ml) pre-incubated with the antibody, then binding to coated human RANK (8 ug/ml) detected; blocked partner RANK
T1 sequence (looked up): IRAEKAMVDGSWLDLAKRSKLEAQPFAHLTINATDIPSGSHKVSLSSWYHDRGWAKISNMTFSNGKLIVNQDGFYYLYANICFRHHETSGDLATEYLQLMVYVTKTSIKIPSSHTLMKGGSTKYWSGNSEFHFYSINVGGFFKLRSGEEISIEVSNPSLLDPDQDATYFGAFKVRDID

human RANKL protein [2] = target: T1, human RANKL protein; assay: cell-based or functional assay
[3] = target: T2, RANKL expressed on the surface of 293 cells (UniProt O14788 1-317, limits assumed); assay: flow cytometry (MFI) on RANKL-transfected 293 cells
T2 construct: whole, on cells; also called RANKL-transfected 293 cells; cells expressing RANKL
T2 sequence (looked up): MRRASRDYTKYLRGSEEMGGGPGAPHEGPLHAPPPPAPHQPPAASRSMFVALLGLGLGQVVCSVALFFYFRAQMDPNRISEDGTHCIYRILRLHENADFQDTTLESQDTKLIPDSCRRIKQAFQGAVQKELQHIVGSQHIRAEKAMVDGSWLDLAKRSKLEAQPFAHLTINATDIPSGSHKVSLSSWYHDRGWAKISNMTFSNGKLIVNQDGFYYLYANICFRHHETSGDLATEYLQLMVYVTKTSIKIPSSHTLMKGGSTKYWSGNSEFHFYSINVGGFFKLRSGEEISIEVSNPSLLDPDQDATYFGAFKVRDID

human RANKL protein [4] = target: T1, human RANKL protein; assay: surface plasmon resonance
human RANKL protein [5] = target: T1, human RANKL protein; assay: competition ELISA: RANKL (0.5 ug/ml) pre-incubated with the antibody, then binding to coated human RANK (8 ug/ml) detected; blocked partner RANK; remark: listed apart in the source
[6] = target: T2, RANKL expressed on the surface of 293 …; assay: flow cytometry (MFI) on RANKL-transfected 293 cells; remark: listed apart in the source
human RANKL protein [7] = target: T1, human RANKL protein; assay: competition ELISA: RANKL (0.5 ug/ml) pre-incubated with the antibody, then binding to coated human RANK (8 ug/ml) detected; blocked partner RANK; remark: listed apart in the source
[8] = target: T2, RANKL expressed on the surface of 293 …; assay: flow cytometry (MFI) on RANKL-transfected 293 cells; remark: listed apart in the source
[9] = target: T2, RANKL expressed on the surface of 293 …; assay: as above; remark: listed apart in the source
human RANKL protein [10] = target: T1, human RANKL protein; assay: competition ELISA: RANKL (0.5 ug/ml) pre-incubated with the antibody, then binding to coated human RANK (8 ug/ml) detected; blocked partner RANK; remark: listed apart in the source
human RANKL protein [11] = target: T1, human RANKL protein; assay: competition ELISA: RANKL (0.5 ug/ml) pre-incubated with the antibody, then binding to coated RANK (8 ug/ml) detected; blocked partner RANK [table at the lower right]
[12] = target: T2, RANKL expressed on the surface of 293 …; assay: flow cytometry (MFI) on RANKL-transfected 293 cells; remark: listed apart in the source

IC50 (human RANKL protein [1]): 0.0416 µg/mL | IC50 in a RAW cell assay (TRAP activity, OD 405 nM) (human RANKL protein [2]): 0.0075 µg/mL | EC50 [3]: 0.0871 µg/mL | Kd (human RANKL protein [4]): 2.13 nM | koff (human RANKL protein [4]): 0.0003 s⁻¹ | kon (human RANKL protein [4]): 141000 M⁻¹ s⁻¹
B1: clone 327 rabbit anti-RANKL antibody (antibody, V domains shown)
VH: QSLEESGGRLVTPGTPLTLTCTVSGFSLSKYEINWVRQAPGKGLEWIGYIDVGSGTWYASWAKGRFTISKTSTTVALRITSPTTEDTATYFCSRQYNPMDLWGPGTLVTVSS
VL: DMTQTPASVEAAVGGTVTIKCQASQNIGSNLAWYQQKPGQRPKLLIYSASTLASGVPSRFKGSGSGTQFTLTISGVQCDDAATYYCQQGYSVGNVNNAFGGGTEVVVK

IC50 (human RANKL protein [5]): 0.0482 µg/mL | EC50 [6]: 0.156 µg/mL
B2: clone EBI-51-23 rabbit anti-RANKL antibody (antibody, V domains shown)
VH: QSVKESEGGLFKPTDTLTLTCTVSGFSLSIYEISWVRQAPGKELEWIGYIGVGGVTYYANWAKSRSTITRNTNQKMVALKMTSLTAADTATYFCARGYNPFDLWGPGTLVTVSS
VL: B1 VL with A11V, K20N, R41P, S48K, F60L, Q68E, S91T, V92T, N96D, A98P

IC50 (human RANKL protein [7]): 0.0545 µg/mL | EC50 [8]: 0.16 µg/mL
B3: clone 415 rabbit anti-RANKL antibody (antibody, V domains shown)
VH: B1 VH with L3V, T15G, P16S, K30N, I33M, A76D, R78K
VL: B1 VL with A11V

EC50 [9]: 0.292 µg/mL | IC50 (human RANKL protein [10]): 0.071 µg/mL
B4: clone 210 rabbit anti-RANKL antibody (antibody, V domains shown)
VH: QSVKESGGGLVTPGGTLTLTCTASGFSLSNNAMSWVRQAPGKGLEWIGYIYPGGSPYYANWAKGRFTISRTSTTVDLKMTSLTTEDTATYFCARHVSDGGWYLYIWGPGTLVTVSL
VL: DMIQTPASVEVAVGGTVTINCQASQSIGSNLAWYQQKPGQPPKLLIYGASTLASGVPSRFKGSGSGTQFTFTISDVECTAAATYYCQQAYSISNVDNAFGGGTEVVVK

IC50 (human RANKL protein [7]): 0.0537 µg/mL | EC50 [8]: 0.0617 µg/mL
B5: clone 447 rabbit anti-RANKL antibody (antibody, V domains shown)
VH: QEQLKESGGGLVTPGGILTLTCTASGFSLRSNAMSWVRQAPGKGLEWIGYIYPGGAPHYASWAKGRFTISRNSTTVDLKMTSLTTEDTATYFCARHVSGGGWYLDIWGPGTLVTVSL
VL: B4 VL with A12G, S26N, L44F, P57S, Q68R, A80D, I92V, S93G

EC50 [9]: 0.13 µg/mL | IC50 (human RANKL protein [10]): 0.0762 µg/mL
B6: clone 174 rabbit anti-RANKL antibody (antibody, V domains shown)
VH: QEQLQESGGGLITPGGTLTLTCTASGFSFNRNALSWVRQAPGKGLEWIGYIYSGGSPYYANWAKGRFNVSRTSTTVDLRMTSLTTEDTATYFCARHVSGGGWYLDIWGPGTLVTVSL
VL: B4 VL with S26N, A49T, P57S, S65F, A80D

IC50 (human RANKL protein [7]): 0.0754 µg/mL | EC50 [8]: 0.215 µg/mL
B7: clone 420 rabbit anti-RANKL antibody (antibody, V domains shown)
VH: B5 VH
VL: B4 VL with A12G, S26N, L44F, P57S, Q68R, A80D, I92V, S93G

IC50 (human RANKL protein [7]): 0.138 µg/mL | EC50 [8]: 0.203 µg/mL
B8: clone 416 rabbit anti-RANKL antibody (antibody, V domains shown)
VH: B4 VH with A23V, N30R, A39T, P52S, G54S, Y104D, T113A
VL: B4 VL with A12V, I19F, S26N, G48S, A80D

EC50 [9]: 0.174 µg/mL | IC50 (human RANKL protein [10]): 0.0823 µg/mL
B9: clone 191 rabbit anti-RANKL antibody (antibody, V domains shown)
VH: QSVEESGGRLVTPGTPLTLTCTVSGFSLYTNLINWVRQAPGKGLEWIGYINYGASAYYANWAKGRFTISQTSSTTVDLKMTSLTIEDTATYFCARGYGNDWDRLDLWGQGTLVTVSS
VL: IVMTQTPSPVSGAVGGTVTINCQASQSIGSNLAWYQQKPGQPPKLLIYSASILASGAPSRVSGSGYGTEFTLTISGVQCADAATYYCQQGYTTNADNIFGGGTEVVVE

IC50 (human RANKL protein [5]): 0.0388 µg/mL | EC50 [6]: 0.078 µg/mL
B10: clone EBI-51-4 rabbit anti-RANKL antibody (antibody, V domains shown)
VH: QSVEESGGRLVKPGESLTLTCTASGFSLSSDVISWVRQAPGKGLEWIGYGWSGGPTYYANWAKGRFTISKTSSTTVDLKITSPTTEDTATYFCARGFNPFDPWGPGTLVTVSS
VL: DMTQTPASVSEPVGGTVTIKCQASQNIGSNLAWYQQKPGQRPKLLIYRASTLASGVSSRFKGSGSGTQFTLTISDLECADAATYYCQQGYSAGNVDNSFGGGTEVVVK

EC50 [9]: 0.135 µg/mL | IC50 (human RANKL protein [10]): 0.0665 µg/mL
B11: clone 193 rabbit anti-RANKL antibody (antibody, V domains shown)
VH: QSVEESGGRLVTPGTPLTLTCTFSGFSLSNNAINWVRQAPGKGLEWIGYTWSGGGTYCASWAKGRFTISKTSSTTVDLKMTSLTTEDTATYFCARAYDSEWDRLDLWGQGTLVTVSS
VL: VMTQTPASVSGPVGGTVTIKCQASQSIGSNLGWYQQKPGQPPKLLIFSASNLESGVPSRFKGSGSGTQFTLTISDLECDDAATYYCQQGYTTNNVLNAFAGGTEVVVK

IC50 (human RANKL protein [5]): 0.0656 µg/mL | EC50 [6]: 0.0757 µg/mL
B12: clone EBI-51-11 rabbit anti-RANKL antibody (antibody, V domains shown)
VH: QSVEESGGRLITPGTPLTLTCTVSGFSLSTDVVSWVRQAPGTGLEWIGYTWSGGSTYYAIWAKGRFTISKTSSTTVDLKITSPTTEDTATYFCARGFNPFDPWGPGTLVTVSS
VL: DMTQTPASVSEPVGGTVTIKCQASQNIGSNLAWYQQKPGQRPKLLIYRASTLASGVSSRFKGSGSGTQFTLTISDLECADAATYYCQQGYSAGNVDKHVFGGGTEVVVK

IC50 (human RANKL protein [5]): 0.0389 µg/mL | EC50 [6]: 0.0621 µg/mL
B13: clone EBI-51-2 rabbit anti-RANKL antibody (antibody, V domains shown)
VH: B12 VH with V3L, I11V, V23A, S27T, L28I, V33I, T42K, I60N, I68L, T85I
VL: B10 VL with T3I, K20V, L31F, R41P, S65F, S98N

IC50 (human RANKL protein [5]): 0.0753 µg/mL | EC50 [6]: 0.0867 µg/mL
B14: clone EBI-51-1 rabbit anti-RANKL antibody (antibody, V domains shown)
VH: QEQLEESGGGLVKPEGSLTLTCTASGFDLSTYYYMCWVRQAPGKGLEWIACIYTGRASTYYATWAKGRFTISKTSSTTVTLQMTSLTAADTATFFCASKAGDIWYYGMDLWGPGTLVTVSS
VL: B12 VL with K97N, H98N, V99T

IC50 (human RANKL protein [7]): 0.0771 µg/mL | EC50 [8]: 0.108 µg/mL
B15: clone 411 rabbit anti-RANKL antibody (antibody, V domains shown)
VH: QSVEESGGRLVTPGTPLTLTCTVSGFSLSSGVVSWVRQAPGKGLEWIGYAWSGGPTYYANWAKGRFTISKSSTTVDLKITSPTTADTATYFCARGYNGMDPWGPGTLVTVSS
VL: DMTQTPASVEVAVGGTVTIKCQASQNIGSNLAWYQQKPGQPPKLLIYKASTLASGVPSRFRGSGSGTEFTLAISDLECADAATYYCQQGYTTKDVVNPFGGGTEVVVK

IC50 (human RANKL protein [11]): 0.096 µg/mL | EC50 [12]: 0.731 µg/mL
B16: humanized clone 408 anti-RANKL antibody (antibody, V domains shown)
VH: EVQLVESGGGLVQPGGSLRLSCAVSGFSLSTDVVSWVRQAPGKGLEWIGYTWNGGATFYASWAKGRFTFSKDSSKNTVYLQMNSPRAEDTAVYFCARGYNGMDPWGPGTLVTVSS
VL: DIQMTQSPSSLSASVGDRVTIKCQASQNIGSNLAWYQQKPGKPPKLLISKASTLASGVPSRFSGSGSGTDFTLTISSLQPEDFATYYCQQGYTTKNVVNPFGGGTKVEIK

IC50 (human RANKL protein [11]): 0.127 µg/mL | EC50 [12]: 0.361 µg/mL
B17: humanized clone EBI-51-22 anti-RANKL antibody (antibody, V domains shown)
VH: B16 VH with V34L, N53S, A56S, F58Y, F69I, Y99F, G101P, M102F
VL: DIQMTQSPSSLSASVGDRVTIKCQASQNIGSNLAWYQQKPGKRPKLLIYRASTLASGVPSRFSGSGSGTDFTLTISSLQPEDFATYYCQQGYSAGNVDNNAFGGGTKVEIK
notes: also called humanized EBI-51-22; humanized EBI51-22
